The data set “SEC” concerns the molecule itself. In words: SEC. (In gel filtration, larger molecules generally elute earlier.)
The data set “crystal structure” concerns the molecule itself. Put plainly: crystal structure.
In data set [1] the target is T1, C-MabR (Mycobacterium tuberculosis, UniProt P9WPH5 161-414).
T1 sequence: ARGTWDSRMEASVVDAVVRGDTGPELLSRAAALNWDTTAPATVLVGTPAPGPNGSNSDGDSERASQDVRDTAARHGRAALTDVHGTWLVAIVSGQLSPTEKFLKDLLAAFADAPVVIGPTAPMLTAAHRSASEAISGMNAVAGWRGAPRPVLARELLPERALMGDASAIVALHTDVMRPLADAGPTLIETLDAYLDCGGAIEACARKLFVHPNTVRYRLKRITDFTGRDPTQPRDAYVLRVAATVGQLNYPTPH
Put plainly: TSA (isothermal analysis); 46 C, apparent; […], room temperature 30 min; ITC: 50 mM Tris pH 7.5, 150 mM NaCl, 20 C. The following applies: protein: recombinant; tags: N-terminal 6xHis (pET28a); chain copies: 2; blunt.

The next data set has as its target T2, N-MabR (Mycobacterium tuberculosis, UniProt P9WPH5 1-160).
T2 sequence: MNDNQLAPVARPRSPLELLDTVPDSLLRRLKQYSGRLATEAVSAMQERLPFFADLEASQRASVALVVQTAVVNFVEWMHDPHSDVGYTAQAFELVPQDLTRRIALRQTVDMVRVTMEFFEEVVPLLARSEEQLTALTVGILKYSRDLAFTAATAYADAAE
Put plainly: EMSA; up to 20 uM protein; […], room temperature 30 min; ITC: 50 mM Tris pH 7.5, 150 mM NaCl, 20 C. To be noted: protein: recombinant; tags: N-terminal 6xHis (pET28a); chain copies: 2; blunt. On the technique in general: A gel shift assay detects complexes by their altered migration in electrophoresis.

For data set [2], the target named is T1, C-MabR. In words: ITC; 20 C; 50 mM Tris pH 7.5, 150 mM NaCl; […]; […], room temperature 30 min; ITC: 50 mM Tris pH 7.5, 150 mM NaCl, 20 C. The following applies: protein: recombinant; tags: N-terminal 6xHis (pET28a); chain copies: 2; blunt.

In general, stoichiometry N refers to the number of molecules, sites or subunits per partner or assembly.

B1: N-terminal domain of Mycobacterium tuberculosis MabR (Rv2242), residues 1-160 (domain or fragment)
chain: T2 sequence
As for B1, in “SEC”, the “stoichiometry N” value stood at 2.

B2: C-terminal domain of Mycobacterium tuberculosis MabR (Rv2242), residues 161-414 (domain or fragment)
chain: T1 sequence
For the molecule B2, the binding result in “crystal structure” is “binds”.

B3: 23-bp FAS-II promoter dsDNA (dsDNA)
DNA 1: GTTTTGTTGGTTATATACAAAAA
DNA 2: TTTTTGTATATAACCAACAAAAC
With B3, the results for the Kd with C-MabR [1] and in the data set with C-MabR [2] were about 1000 nM and 4.3 µM, respectively. Also, the binding result with N-MabR is on record as “no binding”.

Values taken from publication PMC11617747 (Heliyon, 2024).
